Molecular target: EphA2 extracellular domain fused to the Fc portion of an antibody (EphA2 Fc)
Assay: ELISA, inhibition of ephrin-A5 AP binding to immobilized EphA2 Fc; representative experiment; concentrations in nM

Sequence of EphA2 extracellular domain fused to the Fc portion of an antibody (EphA2 Fc) (P29317 whole entry, the tested form may be a part): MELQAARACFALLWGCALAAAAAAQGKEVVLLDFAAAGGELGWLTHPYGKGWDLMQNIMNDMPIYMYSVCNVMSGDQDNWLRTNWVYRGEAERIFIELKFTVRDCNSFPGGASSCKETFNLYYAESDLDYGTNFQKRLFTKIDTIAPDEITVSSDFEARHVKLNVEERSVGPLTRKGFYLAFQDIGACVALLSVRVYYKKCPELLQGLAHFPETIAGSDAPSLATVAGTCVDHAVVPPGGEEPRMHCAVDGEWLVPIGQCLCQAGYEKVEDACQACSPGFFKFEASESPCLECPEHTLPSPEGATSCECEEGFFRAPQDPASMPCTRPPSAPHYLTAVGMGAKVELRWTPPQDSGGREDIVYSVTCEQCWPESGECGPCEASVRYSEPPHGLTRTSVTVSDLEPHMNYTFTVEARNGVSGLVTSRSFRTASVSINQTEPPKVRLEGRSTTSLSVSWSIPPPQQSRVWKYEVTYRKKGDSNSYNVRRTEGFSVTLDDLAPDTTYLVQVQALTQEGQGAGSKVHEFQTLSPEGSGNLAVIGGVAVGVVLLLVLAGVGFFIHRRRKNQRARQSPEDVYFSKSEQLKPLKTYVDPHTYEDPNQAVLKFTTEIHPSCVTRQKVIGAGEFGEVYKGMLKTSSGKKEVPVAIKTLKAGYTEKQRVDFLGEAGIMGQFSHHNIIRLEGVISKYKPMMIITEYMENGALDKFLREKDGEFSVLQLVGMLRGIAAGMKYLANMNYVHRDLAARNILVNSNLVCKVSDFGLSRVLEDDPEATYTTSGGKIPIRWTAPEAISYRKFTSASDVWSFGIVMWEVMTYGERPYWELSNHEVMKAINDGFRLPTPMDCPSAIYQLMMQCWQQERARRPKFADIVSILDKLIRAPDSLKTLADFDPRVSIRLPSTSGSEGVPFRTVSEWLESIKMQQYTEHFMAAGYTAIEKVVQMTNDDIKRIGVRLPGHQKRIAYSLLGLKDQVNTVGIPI

Row | IC50 [µM] | Substance
1 | 3.5 | YSA1-10am (peptide)
2 | 2.8 | YSA-K-bio (peptide)

— US12398179
